Values belong to the substance of their own block, whether it stands above or below them.
Key:
[1] = target: subunits of the human 20S proteasome (28 subunits); experiment: cross-linking
[2] = system: P00330; experiment: mass photometry; details: other: mass photometry
[3] = target: Alcohol dehydrogenase from baker's yeast (baker's yeast) (UniProt P00330); experiment: cross-linking

% covalently stabilised 20S proteasome (25:1 DSBU:20S) [1]: 16% | % covalently stabilised 20S proteasome (400:1 DSBU:20S) [1]: 25%
Substance: subunits of the human 20S proteasome (28 subunits)

Substance: Alcohol dehydrogenase from baker's yeast
% monomers after 5 min in guanidine HCl (dMP) [2]: ∼34 % monomers

Substance: Alcohol dehydrogenase from baker's yeast (from UniProt P00330 1-348) (enzyme)
% of total counts as dimers (25:1 DSBU:ADH) [3]: 25% | % of total counts as monomers (25:1 DSBU:ADH) [3]: 50% | % of total counts as tetramers (25:1 DSBU:ADH) [3]: 10% | % of total counts as tetramers (DSBU molar excess ≥ 100) [3]: 53% | % of total counts as trimers (25:1 DSBU:ADH) [3]: 14% | stoichiometry N [3]: 4

From publication doi:10.1101/2023.05.30.542861
